Test results: patent US20090053246A1

Molecular target: human C1q (R&D Systems) (human) (UniProt P02745)
Test: C1q ELISA, absorbance at 450 nm

Chain of UniProt P02745 (P02745 23-245 limits assumed, chain 1 of 3): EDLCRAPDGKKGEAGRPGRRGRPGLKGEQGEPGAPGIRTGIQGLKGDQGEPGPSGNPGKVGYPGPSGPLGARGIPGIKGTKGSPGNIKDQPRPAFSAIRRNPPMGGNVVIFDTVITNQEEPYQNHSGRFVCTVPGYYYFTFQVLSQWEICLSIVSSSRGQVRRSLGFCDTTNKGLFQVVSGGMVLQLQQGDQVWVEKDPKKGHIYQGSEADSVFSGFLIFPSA
Chain of UniProt P02745 (P02746 28-253 limits assumed, chain 2 of 3, further chain): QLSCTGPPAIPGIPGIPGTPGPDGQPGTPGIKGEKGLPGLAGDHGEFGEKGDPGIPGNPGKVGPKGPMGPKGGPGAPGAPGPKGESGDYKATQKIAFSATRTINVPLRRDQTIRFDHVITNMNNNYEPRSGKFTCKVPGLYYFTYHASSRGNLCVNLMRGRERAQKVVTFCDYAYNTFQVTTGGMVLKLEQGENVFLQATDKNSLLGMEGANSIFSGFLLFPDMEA
Chain of UniProt P02745 (P02747 29-245 limits assumed, chain 3 of 3, further chain): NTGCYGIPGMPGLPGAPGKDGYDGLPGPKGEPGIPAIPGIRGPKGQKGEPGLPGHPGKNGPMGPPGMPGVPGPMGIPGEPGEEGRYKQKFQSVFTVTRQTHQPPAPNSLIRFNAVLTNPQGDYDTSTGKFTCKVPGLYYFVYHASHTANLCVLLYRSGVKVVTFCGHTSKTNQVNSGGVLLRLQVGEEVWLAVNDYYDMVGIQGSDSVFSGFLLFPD

fold reduction of complement activity (C1q ELISA) against the glycosylated Fc fragment: 2 times
Substance: dCysG1Fc (recombinant aglycosylated IgG1 Fc derivative, twelve amino acid deletion at the amino terminus of the native hinge region) (from UniProt P01857 111-330)
